According to patent US11752210B2, “Sensitizing composition using electromagnetic waves for thermal therapy of cancers, and cancer therapy using same” (JINIS CO., LTD., priority 2013, dated 2023):

What was measured:
[1] = tested on: cancer cell line NCI-H460; test: In vitro temperature elevation in cancer cells cultured with transferrin, after electromagnetic waves (Test Example 4); type: cell-based; conditions: for increase in temperature before and after electromagnetic waves: cancer cell line, cultured 4 hr, washed, 100 W for 3 min
Procedure: (§1) The temperature elevation by the metal ion-noncovalently bound apotransferrin was evaluated through in vitro cell testing. A cancer cell line […] Sciences) in which the transferrin receptor was over-expressed was cultured, and 0.1 ml of a cell suspension at a concentration of 1×10^3 cells/ml was aliquoted into a 96-well plate and cultured in a CO2 incubator at 37° C. for 12 hr. As a control, normal human cells, i.e. stromal cells, were cultured, and 0.1 ml thereof was aliquoted at a concentration of 3×10^3 cells/ml into a 96-well plate and cultured in a CO2 incubator at 37° C. for 12 hr. […] After completion of the culturing of transferrin and cells, each plate was washed with a DMEM medium, thus removing transferrin that was not introduced into the cells. Next, each plate was exposed to an energy dose of 100 W for 3 min using a radio-frequency hyperthermia system (EHY-2000, Oncothermia), and changes in the temperature were measured using a thermal imaging camera ([…], Korea Rental, Korea).

[2] = tested on: normal human cells, i.e. stromal cells; test: In vitro temperature elevation in normal cells cultured with transferrin, after electromagnetic waves (Test Example 4); type: cell-based; conditions: normal cell line; all concentrations (0 to 5 mg/ml); cultured 4 hr, washed; 100 W for 3 min
Procedure: as §1

[3] = In vivo accumulation of iron ion in normal and tumorous tissue after transferrin, ICP-MS (Test Example 6); design: species or system BALB/c athymic nude mice; concentration of iron ion (ICP-MS): unit not given here; conditions: 16 mg/kg i.v., after 24 hr
Procedure: In order to evaluate the accumulation capacity of “metal ion-noncovalently bound apotransferrin” (transferrin) in tumorous tissue, the iron-bound transferrin aqueous solution was administered to the mice, after which the concentrations of the metal ions were measured in normal tissue and tumorous tissue. The iron ion-bound apotransferrin (transferrin) aqueous solution was prepared at 4 mg/ml, and 0.1 ml thereof was intravenously injected in a dose of 16 mg/kg. After 24 hr, each tissue was sampled in the same manner as in Test Example 5 and the concentration of the metal ion was measured through ICP-MS (Varian 800-MS, Palo Alto, US).

[4] = tested on: NCI-H460-luc2 tumor xenograft; test: Temperature of normal and tumorous tissue of tumor xenograft mice on application of electromagnetic waves after sensitizer (Example 1, FIGS. 9 to 11); type: in vivo, BALB/c athymic nude mice; conditions: i.v. iron sucrose 1 mg/kg or transferrin 20 mg/kg, 4 hr after administration, 100 W for 3 min
Procedure: To this end, a lung cancer cell line NCI-H460-luc2 (Califer Life Sciences) was cultured, and 5×10^6 cells were subcutaneously injected into 6 to 8-week-old female BALB/c athymic nude mice (Damul Science), and the mice were bred for about 10 days so as to grow tumorous tissue to a size of 100 mm^3 or more, yielding the tumor xenograft animal models for the evaluation of cancer treatment effects.
As the sensitizing composition for thermal therapy, iron sucrose was prepared in the same manner as in Test Example 1, and 0.1 ml of the iron sucrose aqueous solution having a concentration of 0.2 mg/ml was intravenously injected into the established tumor xenograft mice so as to reach a dose of 1 mg/kg.
As the sensitizing composition for thermal therapy, “iron ion-bound apotransferrin” (transferrin) was prepared in the same manner as in Test Example 3, and 0.1 ml of the transferrin aqueous solution having a concentration of 5 mg/ml was intravenously injected into the established tumor xenograft mice so as to reach a dose of 20 mg/kg.
As the control, saline was administered. 4 hr after administration, electromagnetic waves were applied in an energy dose of 100 W for 3 min using a radio-frequency hyperthermia system (EHY-2000, Oncothermia), and the temperatures of normal tissue and tumorous tissue were measured using a thermal imaging device (E60, Korea Rental, Korea).

[5] = tested on: NCI-H460-luc2 tumor xenograft; test: Thermal cancer therapy with sensitizer, bioluminescence imaging of tumor size in the last week (Example 1, FIG. 12); type: in vivo, BALB/c athymic nude mice; conditions: i.v. 1 mg/kg metal ion-bound material or 20 mg/kg transferrin, 100 W 10 min, three times per week, four weeks
Procedure: Next, the potential to treat cancer was evaluated using the metal ion-bound material as the sensitizer upon thermal therapy. A lung cancer cell line NCI-H460-luc2 ([…] Sciences) was cultured, and 5×10^6 cells were subcutaneously injected into 6 to 8-week-old female BALB/c athymic nude mice (Damul Science), and the mice were bred for about 10 days so as to grow tumorous tissue to a size of 100 mm^3 or more, yielding the tumor xenograft animal models for the evaluation of cancer treatment effects. […] After 4 hr, thermal treatment was performed three times per week for a total of four weeks using a radio-frequency hyperthermia system (EHY-2000, Oncothermia) with an energy dose of 100 W for 10 min. As such, a non-treated group and a saline-treated group were set as controls. In order to analyze the size of tumorous tissue in the last week, bioluminescence imaging was performed. For bioluminescence of a luciferase-expressing cancer cell line NCI-H460-luc2, D-luciferin (Xenogen, USA) was intraperitoneally injected at a concentration of 150 mg luciferin/kg/d into the mice, the mice were anesthetized through inhalation using a mixture of isoflurane gas and oxygen, and luminous cancer cells were subjected to overlap photographing using a Xenogen imager (IVIS 200), and analyzed using Igor Pro imaging analysis software.

[6] = tested on: NCI-H460-luc2 tumor xenograft; test: Thermal cancer therapy with repeated sensitizer dosing, weekly bioluminescence imaging of tumor size over four weeks (Example 1, FIG. 13); type: in vivo, BALB/c athymic nude mice; conditions: i.v. three times per week, 100 W 30 min or more
Procedure: After 4 hr, thermal treatment for 30 min or more using a radio-frequency hyperthermia system (EHY-2000, Oncothermia) with an energy dose of 100 W was performed for a total of four weeks, and the size of tumorous tissue was monitored every week. […] In the group to which transferrin was administered, 0.1 ml of the transferrin aqueous solution having a concentration of 5 mg/ml was intravenously injected. As such, the non-treated group and the saline-treated group were used as controls.
In order to analyze the size of tumorous tissue, bioluminescence imaging was regularly performed at an interval of one week, and analysis was performed using Igor Pro imaging analysis software.

## transferrin: iron ion-bound apotransferrin prepared by reacting ferric hydroxide solution with apotransferrin at 37° C. for 30 min
[1]; FIGS. 5 to 8
  selectivity of temperature elevation depending on concentration, cancer vs normal cell line: more selective in the cancer cell line than in the normal cell line
[1]; 1 mg/ml
  increase in temperature before and after electromagnetic waves: 11.9 °C
[1]; 5 mg/ml
  increase in temperature before and after electromagnetic waves: 12.6 °C
[2]
  change in temperature before and after electromagnetic waves: about 7 °C
[3]; Brain
  Fold increase of iron ion vs saline: 1.26
  concentration of iron ion (ICP-MS): 28.4 ± 3.5
[3]; Heart
  Fold increase of iron ion vs saline: 2.18
  concentration of iron ion (ICP-MS): 70.1 ± 12.3
[3]; Kidney
  Fold increase of iron ion vs saline: 0.72
  concentration of iron ion (ICP-MS): 41.2 ± 1.7
[3]; Liver
  Fold increase of iron ion vs saline: 1.27
  concentration of iron ion (ICP-MS): 94.7 ± 8.1
[3]; Lung
  Fold increase of iron ion vs saline: 1.55
  concentration of iron ion (ICP-MS): 43.9 ± 17.9
[3]; Muscle
  Fold increase of iron ion vs saline: 0.87
  concentration of iron ion (ICP-MS): 25.7 ± 5.2
[3]; Stomach
  Fold increase of iron ion vs saline: 1.67
  concentration of iron ion (ICP-MS): 46.4 ± 14.9
[3]; Tumor
  concentration of iron ion (ICP-MS): 43.9 ± 9.7
[3]; Tumor, 16 mg/kg
  Fold increase of iron ion vs saline: ≥ 3.2
[3]; Tumor, listed as Transferrin, 16 mg/kg
  Fold increase of iron ion vs saline: 3.25
[4]; normal tissue
  changes in the temperature before and after the application of electromagnetic waves: 1 °C
[4]; tumorous tissue
  changes in the temperature before and after the application of electromagnetic waves: 2 °C
[5]
  cancer treatment effects through thermal therapy (size of tumorous tissue, bioluminescence imaging): excellent
[6]; 0.1 ml of 0.2 mg/ml (iron dextran, iron sucrose) or 5 mg/ml (transferrin), four weeks
  growth of cancer upon thermal treatment using electromagnetic waves (bioluminescence imaging): remarkably inhibited
[6]; 0.1 ml of 5 mg/ml, after four weeks
  size of cancer after four weeks (bioluminescence imaging): disappeared completely
